Values joined by “and” are separate entries in the source; they are usually repeats but may differ in a detail not shown here. Equal entries are not always repeated.
Settings: Pseudomonas aeruginosa (strain ATCC 15692 / DSM 22644 / CIP 104116 / JCM 14847 / LMG 12228 / 1C / PRS 101 / PAO1), pH 7, CD, transition: 2, reversible: yes, whole UniProt chain shown; for denaturant m value / unfolding free energy: 25 °C, GdnHCl; for Tm / unfolding enthalpy (calorimetric): Thermal

B1: Azurin wild type, P00282 (protein)
chain: MLRKLAAVSLLSLLSAPLLAAECSVDIQGNDQMQFNTNAITVDKSCKQFTVNLSHPGNLPKNVMGHNWVLSTAADMQGVVTDGMASGLDKDYLKPDDSRVIAHTKLIGSGEKDSVTFDVSKLKEGEQYMFFCTFPGHSALMKGTLTLK
- denaturant m value (Dextran 20 50 mg/ml): 4.99 kcal/mol/M
- denaturant m value (Dextran 20 100 mg/ml): 4.99 kcal/mol/M and 4.87 kcal/mol/M
- unfolding free energy (Dextran 20 100 mg/ml): 8.71 kcal/mol
- denaturant m value (Dextran 20 150 mg/ml): 4.68 kcal/mol/M
- denaturant m value (Dextran 20 200 mg/ml): 4.66 kcal/mol/M
- denaturant m value (Dextran20 200 mg/ml): 4.66 kcal/mol/M
- denaturant m value (Dextran 20 250 mg/ml): 4.49 kcal/mol/M
- unfolding free energy (Dextran 20 250 mg/ml): 9.29 kcal/mol
- denaturant m value (Dextran 20 300 mg/ml): 4.9 kcal/mol/M
- unfolding free energy (Dextran 20 300 mg/ml): 9.65 kcal/mol
- denaturant m value (Dextran 40 200 mg/ml): 5.11 kcal/mol/M
- unfolding free energy (Dextran 40 200 mg/ml): 8.95 kcal/mol
- denaturant m value (Dextran 40 250 mg/ml): 4.08 kcal/mol/M
- unfolding free energy (Dextran 40 250 mg/ml): 9.5 kcal/mol
- denaturant m value (Dextran 40 300 mg/ml): 4.68 kcal/mol/M
- unfolding free energy (Dextran 40 300 mg/ml): 9.65 kcal/mol
- denaturant m value (Dextran 70 100 mg/ml): 4.9 kcal/mol/M
- unfolding free energy (Dextran 70 100 mg/ml): 8.59 kcal/mol
- denaturant m value (Dextran 70 200 mg/ml): 4.73 kcal/mol/M
- unfolding free energy (Dextran 70 200 mg/ml): 8.86 kcal/mol
- denaturant m value (Dextran 70 300 mg/ml): 4.68 kcal/mol/M
- unfolding free energy (Dextran 70 300 mg/ml): 9.65 kcal/mol
- denaturant m value (Ficoll 70 50 mg/ml): 5.09 kcal/mol/M
- denaturant m value (Ficoll 70 100 mg/ml): 4.97 kcal/mol/M
- denaturant m value (Ficoll 70 150 mg/ml): 4.46 kcal/mol/M
- denaturant m value (Ficoll 70 200 mg/ml): 4.92 kcal/mol/M
- denaturant m value (Ficoll 70 250 mg/ml): 4.94 kcal/mol/M
- denaturant m value (Ficoll 70 300 mg/ml): 5.16 kcal/mol/M
- denaturant m value: 4.92 kcal/mol/M
- Tm (Dextran 20 50 mg/ml): 64 °C
- unfolding enthalpy (calorimetric) (Dextran 20 50 mg/ml): 112 kcal/mol
- Tm (Dextran 20 100 mg/ml): 65 °C
- unfolding enthalpy (calorimetric) (Dextran 20 100 mg/ml): 114 kcal/mol
- Tm (Dextran 20 150 mg/ml): 65 °C
- unfolding enthalpy (calorimetric) (Dextran 20 150 mg/ml): 115 kcal/mol
- Tm (Dextran 20 200 mg/ml): 66 °C
- unfolding enthalpy (calorimetric) (Dextran 20 200 mg/ml): 120 kcal/mol
- Tm (Dextran20 200 mg/ml): 66 °C
- Tm (Dextran 20 250 mg/ml): 67 °C
- unfolding enthalpy (calorimetric) (Dextran 20 250 mg/ml): 107 kcal/mol
- Tm (Dextran 40 200 mg/ml): 66 °C
- Tm (Dextran 70 100 mg/ml): 65 °C
- Tm (Dextran 70 200 mg/ml): 68 °C
- Tm (Ficoll 70 50 mg/ml): 64 °C
- unfolding enthalpy (calorimetric) (Ficoll 70 50 mg/ml): 117 kcal/mol
- Tm (Ficoll 70 100 mg/ml): 64 °C
- unfolding enthalpy (calorimetric) (Ficoll 70 100 mg/ml): 117 kcal/mol
- Tm (Ficoll 70 150 mg/ml): 65 °C
- unfolding enthalpy (calorimetric) (Ficoll 70 150 mg/ml): 118 kcal/mol
- Tm (Ficoll 70 200 mg/ml): 65 °C
- unfolding enthalpy (calorimetric) (Ficoll 70 200 mg/ml): 117 kcal/mol
- Tm (Ficoll 70 250 mg/ml): 65 °C
- unfolding enthalpy (calorimetric) (Ficoll 70 250 mg/ml): 113 kcal/mol
